From patent US8632989B1, “Mutant insulin degrading enzyme and methods of use” (University of Kentucky Research Foundation, priority 2011, dated 2014)

How the values were obtained:
[1] = test system: Abz-GGFLRKHGQ-EDDnp; assay: Enzyme activity assay, kinetics of wild type rIDE and distal site mutants with fluorogenic substrate; format: biochemical; details: rat IDE, Abz-GGFLRKHGQ-EDDnp as substrate; for Vmax: 50 mM Tris-HCl, pH 7.4
Description: (§1) FIG. 17. Effects of distal site mutations. (A) Comparison of the kinetics of wild type IDE with the distal site mutants. Activity was measured with varying amounts of Abz-[…]-EDDnp (SEQ ID NO:3) substrate as indicated. Either hyperbolic (Michaelis-Menten equation) or sigmoidal curves (Hill equation) were fit to the data. (B) Effect of bradykinin on the activity of wild type IDE and the distal site mutants. (C) Activation of wild type IDE and distal site mutants by ATP. Relative activity is the fold activation above the level of the wild type enzyme alone.
(§2) The activity of IDE was measured by following the increase in fluorescence upon hydrolysis at the L-R bond of the fluorogenic peptide Abz-[…]-EDDnp (SEQ ID NO:3) on a SpectraMax Gemini XS fluorescence plate reader using an excitation wavelength of 318 nm and emission wavelength of 419 nm. Reactions were carried out in 200 μl volumes containing 50 mM Tris-HCl, pH 7.4, 1.92 μg of wild type rIDE, 4.6 μg of rIDE-V360S, 4.3 μg rIDE-I374S, or 1.63 μg of rIDE-Y609F. For measurements of activation by bradykinin, IDE activity was determined with 10 μM Abz-[…]-EDDnp (SEQ ID NO:3) as substrate in 50 mM Tris-HCl buffer, pH 7.4. The amount of protein was 0.5 μg for wild type rIDE and 5 μg for each of the IDE distal-site mutants. Data were analyzed using Softmax 4.0 (Molecular Devices) and kinetic parameters calculated with Prism (Graphpad Software). […] Under these assay conditions, both wild type and mutant rIDE are almost completely dimeric.

[2] = test system: Abz-GGFLRKHGQ-EDDnp; assay: Activation by ATP, wild type rIDE and distal site mutants; format: biochemical; details: 10 μM Abz-GGFLRKHGQ-EDDnp as substrate
Description: as §1, §2
Fluorescence measurements of TNP-ATP binding were performed on a Perkin-Elmer LS55 Luminescence Spectrometer. Titrations were monitored at an excitation wavelength of 403 nm and emission wavelength of 547 nm. The temperature of the sample was maintained at 20±0.1° C. by circulating thermostatically controlled water through the cuvette holder. […] The fluorescence of TNP-ATP was subtracted from the total fluorescence of enzyme+TNP-ATP to yield specific fluorescence enhancement (ΔF).

[3] = Fluorescence measurements of TNP-ATP binding, wild type rIDE and distal site mutants; details: hyperbolic one site binding fit, 20 °C
Description: The fluorescence increase on binding of (2,4,6-trinitrophenyl)ATP (TNP-ATP) is plotted for the indicated IDE constructs as a function of ligand concentration. Data were fit to a hyperbolic one site binding mechanism.
Fluorescence emission spectra of 10 μM TNP-ATP in […] Tris-HCl, pH7.4, was measured in the presence of 1.5 μM of each wild type IDE and the indicated IDE distal mutants. Fluorescence spectra were recorded with a λexc=403 nm on a Perkin-Elmer LS55 Luminescence Spectrometer.
Fluorescence measurements of TNP-ATP binding were performed on a Perkin-Elmer LS55 Luminescence Spectrometer. Titrations were monitored at an excitation wavelength of 403 nm and emission wavelength of 547 nm. The temperature of the sample was maintained at 20±0.1° C. by circulating thermostatically controlled water through the cuvette holder. Assays were conducted in 200 μL reaction mixtures containing 50 mM Tris-HCl, pH, 7.4, 10 μM Abz-[…]-EDDnp (SEQ ID NO:3) as substrate, and 0.5 μg wild type rIDE, 2.3 μg rIDE-V3605, 2.0 μg rIDE-I3745 or 1.62 μg rIDEY609F and the indicated concentration of ATP. The fluorescence of TNP-ATP was subtracted from the total fluorescence of enzyme+TNP-ATP to yield specific fluorescence enhancement (ΔF).

B1: Y609F: Rat IDE distal site mutant Y609F (protein, UniProt P35559 1-1019, looked up, variant Y609F)
Insulin-degrading enzyme: MRNGLVWLLHPALPSTLHSILGARPPPVKRLCGFPKQIYSTMNNPAIQRIEDHIVKSPEDKREYRGLELANGIKVLLISDPTTDKSSAALDVHIGSLSDPPNIPGLSHFCEHMLFLGTKKYPKENEYSQFLSEHAGSSNAFTSGEHTNYYFDVSHEHLEGALDRFAQFFLCPLFDASCKDREVNAVDSEHEKNVMNDAWRLFQLEKATGNPKHPFSKFGTGNKYTLETRPNQEGIDVREELLKFHSTYYSSNLMAICVLGRESLDDLTNLVVKLFSEVENKNVPLPEFPEHPFQEEHLKQLYKIVPIKDIRNLYVTFPIPDLQQYYKSNPGHYLGHLIGHEGPGSLLSELKSKGWVNTLVGGQKEGARGFMFFIINVDLTEEGLLHVEDIILHMFQYIQKLRAEGPQEWVFQECKDLNAVAFRFKDKERPRGYTSKIAGKLHYYPLNGVLTAEYLLEEFRPDLIDMVLDKLRPENVRVAIVSKSFEGKTDRTEQWYGTQYKQEAIPEDVIQKWQNADLNGKFKLPTKNEFIPTNFEILALEKDATPYPALIKDTAMSKLWFKQDDKFFLPKACLNFEFFSPFAYVDPLHCNMAYLYLELLKDSLNEYAFAAELAGLSYDLQNTIYGMYLSVKGYNDKQPILLKKITEKMATFEIDKKRFEIIKEAYMRSLNNFRAEQPHQHAMYYLRLLMTEVAWTKDELKEALDDVTLPRLKAFIPQLLSRLHIEALLHGNITKQAALGVMQMVEDTLIEHAHTKPLLPSQLVRYREVQLPDRGWFVYQRRNEVHNNCGIEIYYQTDMQSTSENMFLELFCQIISEPCFNTLRTKEQLGYIVFSGPRRANGIQGLRFIIQSEKPPHYLESRVEAFLITMEKAIEDMTEEAFQKHIQALAIRRLDKPKKLSAECAKYWGEIISQQYNYDRDNIEVAYLKTLSKDDIIKFYKEMLAVDAPRRHKVSVHVLAREMDSCPVVGEFPSQNDINLSEAPPLPQPEVIHNMTEFKRGLPLFPLVKPHINFMAAKL
[1]
  Hill coefficient: 1.04
  Km: 6.86 ± 1.18 µM
  Vmax: 2.6 ± 0.56 nmol/min/mg
[1]; listed as Tyr609Phe
  Hill coefficient: 1.04 ± 0.14
[2]
  ATP activation: not significant
[3]
  Kd: 2 ± 0.3 µM

B2: V360S: Rat IDE distal site mutant V360S (protein, UniProt P35559 1-1019, looked up, variant V360S)
Insulin-degrading enzyme: MRNGLVWLLHPALPSTLHSILGARPPPVKRLCGFPKQIYSTMNNPAIQRIEDHIVKSPEDKREYRGLELANGIKVLLISDPTTDKSSAALDVHIGSLSDPPNIPGLSHFCEHMLFLGTKKYPKENEYSQFLSEHAGSSNAFTSGEHTNYYFDVSHEHLEGALDRFAQFFLCPLFDASCKDREVNAVDSEHEKNVMNDAWRLFQLEKATGNPKHPFSKFGTGNKYTLETRPNQEGIDVREELLKFHSTYYSSNLMAICVLGRESLDDLTNLVVKLFSEVENKNVPLPEFPEHPFQEEHLKQLYKIVPIKDIRNLYVTFPIPDLQQYYKSNPGHYLGHLIGHEGPGSLLSELKSKGWVNTLSGGQKEGARGFMFFIINVDLTEEGLLHVEDIILHMFQYIQKLRAEGPQEWVFQECKDLNAVAFRFKDKERPRGYTSKIAGKLHYYPLNGVLTAEYLLEEFRPDLIDMVLDKLRPENVRVAIVSKSFEGKTDRTEQWYGTQYKQEAIPEDVIQKWQNADLNGKFKLPTKNEFIPTNFEILALEKDATPYPALIKDTAMSKLWFKQDDKFFLPKACLNFEFFSPFAYVDPLHCNMAYLYLELLKDSLNEYAYAAELAGLSYDLQNTIYGMYLSVKGYNDKQPILLKKITEKMATFEIDKKRFEIIKEAYMRSLNNFRAEQPHQHAMYYLRLLMTEVAWTKDELKEALDDVTLPRLKAFIPQLLSRLHIEALLHGNITKQAALGVMQMVEDTLIEHAHTKPLLPSQLVRYREVQLPDRGWFVYQRRNEVHNNCGIEIYYQTDMQSTSENMFLELFCQIISEPCFNTLRTKEQLGYIVFSGPRRANGIQGLRFIIQSEKPPHYLESRVEAFLITMEKAIEDMTEEAFQKHIQALAIRRLDKPKKLSAECAKYWGEIISQQYNYDRDNIEVAYLKTLSKDDIIKFYKEMLAVDAPRRHKVSVHVLAREMDSCPVVGEFPSQNDINLSEAPPLPQPEVIHNMTEFKRGLPLFPLVKPHINFMAAKL
[1]
  Hill coefficient: 1.07
  Km: 8.61 ± 0.81 µM
  Vmax: 2.01 ± 0.08 nmol/min/mg
[1]; listed as Val360Ser
  Hill coefficient: 1.07 ± 0.30
[2]
  ATP activation: 8 fold
[3]
  Kd: 3.7 ± 0.8 µM

B3: I374S: Rat IDE distal site mutant I374S (protein, UniProt P35559 1-1019, looked up, variant I374S)
Insulin-degrading enzyme: MRNGLVWLLHPALPSTLHSILGARPPPVKRLCGFPKQIYSTMNNPAIQRIEDHIVKSPEDKREYRGLELANGIKVLLISDPTTDKSSAALDVHIGSLSDPPNIPGLSHFCEHMLFLGTKKYPKENEYSQFLSEHAGSSNAFTSGEHTNYYFDVSHEHLEGALDRFAQFFLCPLFDASCKDREVNAVDSEHEKNVMNDAWRLFQLEKATGNPKHPFSKFGTGNKYTLETRPNQEGIDVREELLKFHSTYYSSNLMAICVLGRESLDDLTNLVVKLFSEVENKNVPLPEFPEHPFQEEHLKQLYKIVPIKDIRNLYVTFPIPDLQQYYKSNPGHYLGHLIGHEGPGSLLSELKSKGWVNTLVGGQKEGARGFMFFSINVDLTEEGLLHVEDIILHMFQYIQKLRAEGPQEWVFQECKDLNAVAFRFKDKERPRGYTSKIAGKLHYYPLNGVLTAEYLLEEFRPDLIDMVLDKLRPENVRVAIVSKSFEGKTDRTEQWYGTQYKQEAIPEDVIQKWQNADLNGKFKLPTKNEFIPTNFEILALEKDATPYPALIKDTAMSKLWFKQDDKFFLPKACLNFEFFSPFAYVDPLHCNMAYLYLELLKDSLNEYAYAAELAGLSYDLQNTIYGMYLSVKGYNDKQPILLKKITEKMATFEIDKKRFEIIKEAYMRSLNNFRAEQPHQHAMYYLRLLMTEVAWTKDELKEALDDVTLPRLKAFIPQLLSRLHIEALLHGNITKQAALGVMQMVEDTLIEHAHTKPLLPSQLVRYREVQLPDRGWFVYQRRNEVHNNCGIEIYYQTDMQSTSENMFLELFCQIISEPCFNTLRTKEQLGYIVFSGPRRANGIQGLRFIIQSEKPPHYLESRVEAFLITMEKAIEDMTEEAFQKHIQALAIRRLDKPKKLSAECAKYWGEIISQQYNYDRDNIEVAYLKTLSKDDIIKFYKEMLAVDAPRRHKVSVHVLAREMDSCPVVGEFPSQNDINLSEAPPLPQPEVIHNMTEFKRGLPLFPLVKPHINFMAAKL
[1]
  Hill coefficient: 1.12
  Km: 8.5 ± 1.74 µM
  Vmax: 3.45 ± 0.22 nmol/min/mg
[1]; listed as Ile374Ser
  Hill coefficient: 1.12 ± 0.2
[2]
  ATP activation: not significant
[3]
  Kd: 2.1 ± 0.5 µM
